The experiment addresses PRC2^amKR: PRC2 with EZH2 K510R, K514R, K515R (am-loop lysines mutated to arginines) (human) (UniProt Q15910).

For the substance “PRC2^CXC: PRC2 with EZH2 K568A/Q570A/K574A/Q575A in the CXC domain, automethylated (from UniProt Q15910-2 1-751; Q15022 80-685; O75530 1-441; Q09028 1-425; Q6ZN18 1-517) (complex)”, the H3K27me3 generated by PRC2^amKR on mononucleosomes (HMTase assay, western blot) with 400 nM PRC2^CXC added amounted to 50%.

The values above are taken from paper PMC11980035.
